The assay concerns the target human ACE-2, Fc-tagged (human) (UniProt Q9BYF1). The assay is described as follows: BLI. Background: Biolayer interferometry detects binding as a change in optical thickness at a sensor tip.

The values that follow come from paper PMC8529273.

As a reminder, the Kd is the equilibrium constant for the complex coming apart. The low end stands for higher affinity, the high end for lower affinity. For the substance “SARS-CoV-2 B.1.351 RBD (K417N_E484K_N501Y) (domain or fragment)”, the Kd amounted to 7.81 nM. In other words, the single-digit nanomolar range.

Turning to “SARS-CoV-2 P.1 RBD (K417T_E484K_N501Y) (domain or fragment)”, the Kd was 5.64 nM. The Kd values of the last two substances are within 1.5-fold of each other.

Broadly, the koff is the rate constant with which the complex falls apart. One may read the kon as the second-order rate constant of association. The low end stands for slow association, the high end for fast association. “SARS-CoV-2 RBD E484K (domain or fragment)” had a Kd of 15.6 nM, a koff of 0.00677 s⁻¹ and a kon of 433000 M⁻¹ s⁻¹.

Consider “SARS-CoV-2 RBD K417N (domain or fragment)”, for which the Kd amounted to 77 nM and the koff stood at 0.0162 s⁻¹.

“SARS-CoV-2 RBD K417T (domain or fragment)” registered a dissociation constant (Kd) of 56.7 nM and a koff of 0.0129 s⁻¹.

As for “SARS-CoV-2 receptor-binding domain (RBD) wild type (Wuhan strain) (domain or fragment)”, the Kd was 23.9 nM, the koff is 0.00755 s⁻¹ and the kon stood at 315000 M⁻¹ s⁻¹.
